Reference: paper PMC9865026 (Pathogens, 2022)

Molecular target: A/New Caledonia/20/1999 (NC H1N1) recombinant hemagglutinin (HA) (Influenza A virus A/New …, UniProt Q6WG00, strain)
Experiment: ELISA
Conditions: both partners purified

B1: FI6 human IgG1 (antibody, V domains shown)
VH: QVQLVESGGGVVQPGRSLRLSCAASGFTFSTYAMHWVRQAPGKGLEWVAVISYDANYKYYADSVKGRFTISRDNSKNTLYLQMNSLRAEDTAVYYCAKDSQLRSLLYFEWLSQGYFDYWGQGTLVTVSS
VL: not shown
notes: also called native human IgG1; source: HEK-293, transfected (pTT5), purified from cell culture supernatant (MabSelect); copies: 2 + 2
- binding result: binds
